Assay results: patent US10941182 (Amgen, dated 2021)
Starred links: 1 amine or outer side, 2 acyl side, 3 side chain; linkers in the order of their positions; H or OH if unused. Non-standard residues stand in square brackets, D forms with d. Primed or numbered codes have the meaning given here. *: point of attachment. AC4Abu = α-carboxy-4-aminobutyric acid, O=C(C(CCN[*:1])C(=O)[*:3])[*:2]; Oic = O=C(O)[C@@H]1C[C@@H]2CCCC[C@@H]2N1; Phe(4-Cl) = N[C@@H](Cc1ccc(Cl)cc1)C(=O)O; γGlu = O=C(O)[C@H](CCC(=O)[*:2])N[*:1]; NMeR = CN[C@@H](CCCNC(=N)N)C(=O)O; Tridecanoyl = CCCCCCCCCCCCC(=O)*; Cha = N[C@@H](CC1CCCCC1)C(=O)O; Tle = CC(C)(C)[C@H](N)C(=O)O; αMeP = C[C@@]1(C(=O)O)CCCN1; β3hP = O=C(O)C[C@@H]1CCCN1; Nle = CCCC[C@H](N)C(=O)O; Pip′ = not defined here; Deg = CCC(N)(CC)C(=O)O; AEEA = NCCOCCOCC(=O)O; Aib = CC(C)(N)C(=O)O

What was measured:
rat APJ receptor = molecular target: T1, rat APJ receptor (rat, UniProt Q9JHG3 1-377); assay: cell-based or functional assay
T1 sequence (looked up): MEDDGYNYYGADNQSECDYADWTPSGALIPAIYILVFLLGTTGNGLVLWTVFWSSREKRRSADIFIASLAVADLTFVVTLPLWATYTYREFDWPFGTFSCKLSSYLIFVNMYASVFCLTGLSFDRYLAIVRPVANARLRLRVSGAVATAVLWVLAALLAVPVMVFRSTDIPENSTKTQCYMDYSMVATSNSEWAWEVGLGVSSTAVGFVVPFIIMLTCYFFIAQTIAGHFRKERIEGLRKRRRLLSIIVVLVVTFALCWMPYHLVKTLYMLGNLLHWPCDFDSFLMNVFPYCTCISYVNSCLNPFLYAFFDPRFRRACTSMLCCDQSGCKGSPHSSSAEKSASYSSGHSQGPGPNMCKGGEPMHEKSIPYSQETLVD

human APJ receptor = molecular target: T2, human APJ receptor (human, UniProt P35414 1-380); assay: cell-based or functional assay
T2 sequence (looked up): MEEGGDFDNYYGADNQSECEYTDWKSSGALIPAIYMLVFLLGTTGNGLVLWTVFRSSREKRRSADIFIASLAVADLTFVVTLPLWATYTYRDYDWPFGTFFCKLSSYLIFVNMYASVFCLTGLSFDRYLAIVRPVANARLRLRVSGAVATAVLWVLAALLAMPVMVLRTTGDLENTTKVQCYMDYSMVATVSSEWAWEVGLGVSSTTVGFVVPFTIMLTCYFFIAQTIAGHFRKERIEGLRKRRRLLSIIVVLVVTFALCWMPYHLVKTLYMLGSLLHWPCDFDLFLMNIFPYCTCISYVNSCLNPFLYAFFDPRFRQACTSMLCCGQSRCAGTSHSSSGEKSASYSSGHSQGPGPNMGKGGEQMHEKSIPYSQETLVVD

B1: Apelin polypeptide SEQ ID NO: 411 (peptide)
peptide: Tridecanoyl-[AC4Abu][AEEA][AEEA]QRP[NMeR][Cha]SHKG[Oic][Nle][Deg][Phe(4-Cl)]-OH
SMILES: CCCCCCCCCCCCC(=O)NCCC(C(=O)O)C(=O)NCCOCCOCC(=O)NCCOCCOCC(=O)N[C@@H](CCC(N)=O)C(=O)N[C@@H](CCCNC(=N)N)C(=O)N1CCC[C@H]1C(=O)N(C)[C@@H](CCCNC(=N)N)C(=O)N[C@@H](CC1CCCCC1)C(=O)N[C@@H](CO)C(=O)N[C@@H](Cc1c[nH]cn1)C(=O)N[C@@H](CCCCN)C(=O)NCC(=O)N1[C@H](C(=O)N[C@@H](CCCC)C(=O)NC(CC)(CC)C(=O)N[C@@H](Cc2ccc(Cl)cc2)C(=O)O)C[C@@H]2CCCC[C@@H]21
- EC50 Rat APJ Receptor (GTPγS assay) (rat APJ receptor): 2.94 nM
- EC50 Human APJ Receptor (GTPγS assay) (human APJ receptor): 2.1 nM

B2: Apelin polypeptide SEQ ID NO: 412 (peptide)
peptide: Tridecanoyl-[AC4Abu][AEEA][AEEA]QRP[NMeR][Cha]SHKG[Oic][Nle][αMeP][Phe(4-Cl)]-OH
SMILES: CCCCCCCCCCCCC(=O)NCCC(C(=O)O)C(=O)NCCOCCOCC(=O)NCCOCCOCC(=O)N[C@@H](CCC(N)=O)C(=O)N[C@@H](CCCNC(=N)N)C(=O)N1CCC[C@H]1C(=O)N(C)[C@@H](CCCNC(=N)N)C(=O)N[C@@H](CC1CCCCC1)C(=O)N[C@@H](CO)C(=O)N[C@@H](Cc1c[nH]cn1)C(=O)N[C@@H](CCCCN)C(=O)NCC(=O)N1[C@H](C(=O)N[C@@H](CCCC)C(=O)N2CCC[C@@]2(C)C(=O)N[C@@H](Cc2ccc(Cl)cc2)C(=O)O)C[C@@H]2CCCC[C@@H]21
- EC50 Rat APJ Receptor (GTPγS assay) (rat APJ receptor): 0.436 nM
- EC50 Human APJ Receptor (GTPγS assay) (human APJ receptor): 0.614 nM

B3: Apelin polypeptide SEQ ID NO: 413 (peptide)
peptide: Tridecanoyl-[AC4Abu][AEEA][AEEA]QRP[NMeR][Cha]SHKG[Oic][Tle]P[Phe(4-Cl)]-OH
SMILES: CCCCCCCCCCCCC(=O)NCCC(C(=O)O)C(=O)NCCOCCOCC(=O)NCCOCCOCC(=O)N[C@@H](CCC(N)=O)C(=O)N[C@@H](CCCNC(=N)N)C(=O)N1CCC[C@H]1C(=O)N(C)[C@@H](CCCNC(=N)N)C(=O)N[C@@H](CC1CCCCC1)C(=O)N[C@@H](CO)C(=O)N[C@@H](Cc1c[nH]cn1)C(=O)N[C@@H](CCCCN)C(=O)NCC(=O)N1[C@H](C(=O)N[C@H](C(=O)N2CCC[C@H]2C(=O)N[C@@H](Cc2ccc(Cl)cc2)C(=O)O)C(C)(C)C)C[C@@H]2CCCC[C@@H]21
- EC50 Rat APJ Receptor (GTPγS assay) (rat APJ receptor): 1.54 nM
- EC50 Human APJ Receptor (GTPγS assay) (human APJ receptor): 1.53 nM

Binder: Tridecanoyl-[γGlu][AEEA][AEEA]QRP[NMeR][Cha]SHKG[Oic][Nle][Pip′][Phe(4-Cl)]-OH [Apelin polypeptide SEQ ID NO: 445]
- EC50 Rat APJ Receptor (GTPγS assay) (rat APJ receptor): 4.71 nM
- EC50 Human APJ Receptor (GTPγS assay) (human APJ receptor): 4.29 nM

B4: Apelin polypeptide SEQ ID NO: 487 (peptide)
peptide: Tridecanoyl-[γGlu][AEEA][AEEA]QRP[NMeR][Cha]SHKG[Oic][Nle][β3hP][Phe(4-Cl)]-OH
SMILES: CCCCCCCCCCCCC(=O)N[C@@H](CCC(=O)NCCOCCOCC(=O)NCCOCCOCC(=O)N[C@@H](CCC(N)=O)C(=O)N[C@@H](CCCNC(=N)N)C(=O)N1CCC[C@H]1C(=O)N(C)[C@@H](CCCNC(=N)N)C(=O)N[C@@H](CC1CCCCC1)C(=O)N[C@@H](CO)C(=O)N[C@@H](Cc1c[nH]cn1)C(=O)N[C@@H](CCCCN)C(=O)NCC(=O)N1[C@H](C(=O)N[C@@H](CCCC)C(=O)N2CCC[C@H]2CC(=O)N[C@@H](Cc2ccc(Cl)cc2)C(=O)O)C[C@@H]2CCCC[C@@H]21)C(=O)O
- EC50 Rat APJ Receptor (GTPγS assay) (rat APJ receptor): 8.19 nM
- EC50 Human APJ Receptor (GTPγS assay) (human APJ receptor): 1.83 nM

B5: Apelin polypeptide SEQ ID NO: 541 (peptide)
peptide: Tridecanoyl-[γGlu][AEEA][AEEA][dQ]RP[NMeR][Cha]SHKG[Oic][Nle][αMeP][Phe(4-Cl)]-OH
SMILES: CCCCCCCCCCCCC(=O)N[C@@H](CCC(=O)NCCOCCOCC(=O)NCCOCCOCC(=O)N[C@H](CCC(N)=O)C(=O)N[C@@H](CCCNC(=N)N)C(=O)N1CCC[C@H]1C(=O)N(C)[C@@H](CCCNC(=N)N)C(=O)N[C@@H](CC1CCCCC1)C(=O)N[C@@H](CO)C(=O)N[C@@H](Cc1c[nH]cn1)C(=O)N[C@@H](CCCCN)C(=O)NCC(=O)N1[C@H](C(=O)N[C@@H](CCCC)C(=O)N2CCC[C@@]2(C)C(=O)N[C@@H](Cc2ccc(Cl)cc2)C(=O)O)C[C@@H]2CCCC[C@@H]21)C(=O)O
- EC50 Rat APJ Receptor (GTPγS assay) (rat APJ receptor): 1.98 nM
- EC50 Human APJ Receptor (GTPγS assay) (human APJ receptor): 0.938 nM

B6: Apelin polypeptide SEQ ID NO: 542 (peptide)
peptide: Tridecanoyl-[γGlu][AEEA][AEEA][dQ]RP[NMeR][Cha]SHKG[Oic][Nle][β3hP][Phe(4-Cl)]-OH
SMILES: CCCCCCCCCCCCC(=O)N[C@@H](CCC(=O)NCCOCCOCC(=O)NCCOCCOCC(=O)N[C@H](CCC(N)=O)C(=O)N[C@@H](CCCNC(=N)N)C(=O)N1CCC[C@H]1C(=O)N(C)[C@@H](CCCNC(=N)N)C(=O)N[C@@H](CC1CCCCC1)C(=O)N[C@@H](CO)C(=O)N[C@@H](Cc1c[nH]cn1)C(=O)N[C@@H](CCCCN)C(=O)NCC(=O)N1[C@H](C(=O)N[C@@H](CCCC)C(=O)N2CCC[C@H]2CC(=O)N[C@@H](Cc2ccc(Cl)cc2)C(=O)O)C[C@@H]2CCCC[C@@H]21)C(=O)O
- EC50 Rat APJ Receptor (GTPγS assay) (rat APJ receptor): 16.1 nM
- EC50 Human APJ Receptor (GTPγS assay) (human APJ receptor): 5.19 nM

B7: Apelin polypeptide SEQ ID NO: 549 (peptide)
peptide: Tridecanoyl-[γGlu][AEEA][AEEA][dQ]RP[NMeR][Cha]SHKG[Oic][Nle][Deg][Phe(4-Cl)]-OH
SMILES: CCCCCCCCCCCCC(=O)N[C@@H](CCC(=O)NCCOCCOCC(=O)NCCOCCOCC(=O)N[C@H](CCC(N)=O)C(=O)N[C@@H](CCCNC(=N)N)C(=O)N1CCC[C@H]1C(=O)N(C)[C@@H](CCCNC(=N)N)C(=O)N[C@@H](CC1CCCCC1)C(=O)N[C@@H](CO)C(=O)N[C@@H](Cc1c[nH]cn1)C(=O)N[C@@H](CCCCN)C(=O)NCC(=O)N1[C@H](C(=O)N[C@@H](CCCC)C(=O)NC(CC)(CC)C(=O)N[C@@H](Cc2ccc(Cl)cc2)C(=O)O)C[C@@H]2CCCC[C@@H]21)C(=O)O
- EC50 Rat APJ Receptor (GTPγS assay) (rat APJ receptor): 4 nM
- EC50 Human APJ Receptor (GTPγS assay) (human APJ receptor): 1.2 nM

Binder: Tridecanoyl-[γGlu][AEEA][AEEA][dQ]RP[NMeR][Cha]SHKG[Pip′][Nle][Aib][Phe(4-Cl)]-OH [Apelin polypeptide SEQ ID NO: 499]
- EC50 Rat APJ Receptor (GTPγS assay) (rat APJ receptor): 0.0852 nM
- EC50 Human APJ Receptor (GTPγS assay) (human APJ receptor): 0.0236 nM

Binder: Tridecanoyl-[γGlu][AEEA][AEEA][dQ]RP[NMeR][Cha]SHKG[Pip′][Nle][β3hP][Phe(4-Cl)]-OH [Apelin polypeptide SEQ ID NO: 544]
- EC50 Rat APJ Receptor (GTPγS assay) (rat APJ receptor): 5.61 nM
- EC50 Human APJ Receptor (GTPγS assay) (human APJ receptor): 2.42 nM

B8: Apelin polypeptide SEQ ID NO: 361 (peptide)
peptide: Tridecanoyl-[γGlu][AEEA][AEEA]QRP[NMeR][Cha]SHKGP[Nle]P[Phe(4-Cl)]-OH
SMILES: CCCCCCCCCCCCC(=O)N[C@@H](CCC(=O)NCCOCCOCC(=O)NCCOCCOCC(=O)N[C@@H](CCC(N)=O)C(=O)N[C@@H](CCCNC(=N)N)C(=O)N1CCC[C@H]1C(=O)N(C)[C@@H](CCCNC(=N)N)C(=O)N[C@@H](CC1CCCCC1)C(=O)N[C@@H](CO)C(=O)N[C@@H](Cc1c[nH]cn1)C(=O)N[C@@H](CCCCN)C(=O)NCC(=O)N1CCC[C@H]1C(=O)N[C@@H](CCCC)C(=O)N1CCC[C@H]1C(=O)N[C@@H](Cc1ccc(Cl)cc1)C(=O)O)C(=O)O
- EC50 Rat APJ Receptor (GTPγS assay) (rat APJ receptor): 0.086 nM
- EC50 Human APJ Receptor (GTPγS assay) (human APJ receptor): 0.308 nM

B9: Apelin polypeptide SEQ ID NO: 437 (peptide)
peptide: Tridecanoyl-[γGlu][AEEA][AEEA]QRP[NMeR][Cha]SVKG[Oic][Nle]P[Phe(4-Cl)]-OH
SMILES: CCCCCCCCCCCCC(=O)N[C@@H](CCC(=O)NCCOCCOCC(=O)NCCOCCOCC(=O)N[C@@H](CCC(N)=O)C(=O)N[C@@H](CCCNC(=N)N)C(=O)N1CCC[C@H]1C(=O)N(C)[C@@H](CCCNC(=N)N)C(=O)N[C@@H](CC1CCCCC1)C(=O)N[C@@H](CO)C(=O)N[C@H](C(=O)N[C@@H](CCCCN)C(=O)NCC(=O)N1[C@H](C(=O)N[C@@H](CCCC)C(=O)N2CCC[C@H]2C(=O)N[C@@H](Cc2ccc(Cl)cc2)C(=O)O)C[C@@H]2CCCC[C@@H]21)C(C)C)C(=O)O
- EC50 Rat APJ Receptor (GTPγS assay) (rat APJ receptor): 0.725 nM
- EC50 Human APJ Receptor (GTPγS assay) (human APJ receptor): 0.663 nM

B10: Apelin polypeptide SEQ ID NO: 436 (peptide)
peptide: Tridecanoyl-[γGlu][AEEA][AEEA]QRP[NMeR][Cha]SYKG[Oic][Nle]P[Phe(4-Cl)]-OH
SMILES: CCCCCCCCCCCCC(=O)N[C@@H](CCC(=O)NCCOCCOCC(=O)NCCOCCOCC(=O)N[C@@H](CCC(N)=O)C(=O)N[C@@H](CCCNC(=N)N)C(=O)N1CCC[C@H]1C(=O)N(C)[C@@H](CCCNC(=N)N)C(=O)N[C@@H](CC1CCCCC1)C(=O)N[C@@H](CO)C(=O)N[C@@H](Cc1ccc(O)cc1)C(=O)N[C@@H](CCCCN)C(=O)NCC(=O)N1[C@H](C(=O)N[C@@H](CCCC)C(=O)N2CCC[C@H]2C(=O)N[C@@H](Cc2ccc(Cl)cc2)C(=O)O)C[C@@H]2CCCC[C@@H]21)C(=O)O
- EC50 Rat APJ Receptor (GTPγS assay) (rat APJ receptor): 1.47 nM
- EC50 Human APJ Receptor (GTPγS assay) (human APJ receptor): 0.793 nM
